Reference: patent publication US5147794

System: KasI restriction endonuclease (recombinant, cell extract) (Kluyvera ascorbata)
Test: cleavage_in_vitro
Settings: lambda DNA, 37 C, 1 h; nearly 10^6

“GGCGCC (double strand) [KasI recognition site (lambda DNA)]” showed an activity (units per gram of cells) of 1e+06.
